Assay results taken from paper PMC7959344.

What was measured:
[1] = biological target: RRV 26–95 gH-V5/gL-Flag complex (rhesus monkey rhadinovirus (RRV) isolate 26–95)
[2] = biological target: recombinant RRV 26–95 gH-FcStrep/gL (rhesus monkey rhadinovirus (RRV) isolate 26–95); assay: ELISA; RRV 26–95 gH-FcStrep/gL coated at 1μg/ml in PBS; Plxdc1 or Plxdc2 ectodomain 2h at room temperature in 10% FBS in PBS; detected by the C-terminal 6XHis Tag; fit: one site specific binding with Hill slope (Prism6)

| Substance | infection of SLK cells by RRV-YFP wt after preincubation with 250nM hPlxdc2-FcStrep, relative to preincubation with FcStrep (Fig 2D) (% of control infection) [1] | infection of rhesus monkey fibroblasts (RF) by RRV-YFP wt after preincubation with 250nM hPlxdc2-FcStrep, relative to preincubation with FcStrep (Fig 2D) (% of control infection) [1] | EC50 [2] [nM] |
| --- | --- | --- | --- |
| soluble human Plxdc2, ectodomain (amino acids 31–453) fused to IgG1 Fc with a C-terminal tandem Strep-Tag (from UniProt Q6UX71-1 31-453) (Fc fusion) | 63.5 | 73.9 | – |
| human Plxdc1 ectodomain (aa 1–425) with a 6XHis Tag (from UniProt Q8IUK5-1 19-425) (domain or fragment) | – | – | 22.2 |
| human Plxdc2 ectodomain (aa 1–453) with a 6XHis Tag (from UniProt Q6UX71-1 31-453) (domain or fragment) | – | – | 5.2 |
